Data taken from doi:10.1101/2022.04.24.489327.

Biological target: LRRK2 wild-type (UniProt Q5S007 1-2527)
Test: EMSA

LRRK2 wild-type, sequence (Q5S007 whole entry): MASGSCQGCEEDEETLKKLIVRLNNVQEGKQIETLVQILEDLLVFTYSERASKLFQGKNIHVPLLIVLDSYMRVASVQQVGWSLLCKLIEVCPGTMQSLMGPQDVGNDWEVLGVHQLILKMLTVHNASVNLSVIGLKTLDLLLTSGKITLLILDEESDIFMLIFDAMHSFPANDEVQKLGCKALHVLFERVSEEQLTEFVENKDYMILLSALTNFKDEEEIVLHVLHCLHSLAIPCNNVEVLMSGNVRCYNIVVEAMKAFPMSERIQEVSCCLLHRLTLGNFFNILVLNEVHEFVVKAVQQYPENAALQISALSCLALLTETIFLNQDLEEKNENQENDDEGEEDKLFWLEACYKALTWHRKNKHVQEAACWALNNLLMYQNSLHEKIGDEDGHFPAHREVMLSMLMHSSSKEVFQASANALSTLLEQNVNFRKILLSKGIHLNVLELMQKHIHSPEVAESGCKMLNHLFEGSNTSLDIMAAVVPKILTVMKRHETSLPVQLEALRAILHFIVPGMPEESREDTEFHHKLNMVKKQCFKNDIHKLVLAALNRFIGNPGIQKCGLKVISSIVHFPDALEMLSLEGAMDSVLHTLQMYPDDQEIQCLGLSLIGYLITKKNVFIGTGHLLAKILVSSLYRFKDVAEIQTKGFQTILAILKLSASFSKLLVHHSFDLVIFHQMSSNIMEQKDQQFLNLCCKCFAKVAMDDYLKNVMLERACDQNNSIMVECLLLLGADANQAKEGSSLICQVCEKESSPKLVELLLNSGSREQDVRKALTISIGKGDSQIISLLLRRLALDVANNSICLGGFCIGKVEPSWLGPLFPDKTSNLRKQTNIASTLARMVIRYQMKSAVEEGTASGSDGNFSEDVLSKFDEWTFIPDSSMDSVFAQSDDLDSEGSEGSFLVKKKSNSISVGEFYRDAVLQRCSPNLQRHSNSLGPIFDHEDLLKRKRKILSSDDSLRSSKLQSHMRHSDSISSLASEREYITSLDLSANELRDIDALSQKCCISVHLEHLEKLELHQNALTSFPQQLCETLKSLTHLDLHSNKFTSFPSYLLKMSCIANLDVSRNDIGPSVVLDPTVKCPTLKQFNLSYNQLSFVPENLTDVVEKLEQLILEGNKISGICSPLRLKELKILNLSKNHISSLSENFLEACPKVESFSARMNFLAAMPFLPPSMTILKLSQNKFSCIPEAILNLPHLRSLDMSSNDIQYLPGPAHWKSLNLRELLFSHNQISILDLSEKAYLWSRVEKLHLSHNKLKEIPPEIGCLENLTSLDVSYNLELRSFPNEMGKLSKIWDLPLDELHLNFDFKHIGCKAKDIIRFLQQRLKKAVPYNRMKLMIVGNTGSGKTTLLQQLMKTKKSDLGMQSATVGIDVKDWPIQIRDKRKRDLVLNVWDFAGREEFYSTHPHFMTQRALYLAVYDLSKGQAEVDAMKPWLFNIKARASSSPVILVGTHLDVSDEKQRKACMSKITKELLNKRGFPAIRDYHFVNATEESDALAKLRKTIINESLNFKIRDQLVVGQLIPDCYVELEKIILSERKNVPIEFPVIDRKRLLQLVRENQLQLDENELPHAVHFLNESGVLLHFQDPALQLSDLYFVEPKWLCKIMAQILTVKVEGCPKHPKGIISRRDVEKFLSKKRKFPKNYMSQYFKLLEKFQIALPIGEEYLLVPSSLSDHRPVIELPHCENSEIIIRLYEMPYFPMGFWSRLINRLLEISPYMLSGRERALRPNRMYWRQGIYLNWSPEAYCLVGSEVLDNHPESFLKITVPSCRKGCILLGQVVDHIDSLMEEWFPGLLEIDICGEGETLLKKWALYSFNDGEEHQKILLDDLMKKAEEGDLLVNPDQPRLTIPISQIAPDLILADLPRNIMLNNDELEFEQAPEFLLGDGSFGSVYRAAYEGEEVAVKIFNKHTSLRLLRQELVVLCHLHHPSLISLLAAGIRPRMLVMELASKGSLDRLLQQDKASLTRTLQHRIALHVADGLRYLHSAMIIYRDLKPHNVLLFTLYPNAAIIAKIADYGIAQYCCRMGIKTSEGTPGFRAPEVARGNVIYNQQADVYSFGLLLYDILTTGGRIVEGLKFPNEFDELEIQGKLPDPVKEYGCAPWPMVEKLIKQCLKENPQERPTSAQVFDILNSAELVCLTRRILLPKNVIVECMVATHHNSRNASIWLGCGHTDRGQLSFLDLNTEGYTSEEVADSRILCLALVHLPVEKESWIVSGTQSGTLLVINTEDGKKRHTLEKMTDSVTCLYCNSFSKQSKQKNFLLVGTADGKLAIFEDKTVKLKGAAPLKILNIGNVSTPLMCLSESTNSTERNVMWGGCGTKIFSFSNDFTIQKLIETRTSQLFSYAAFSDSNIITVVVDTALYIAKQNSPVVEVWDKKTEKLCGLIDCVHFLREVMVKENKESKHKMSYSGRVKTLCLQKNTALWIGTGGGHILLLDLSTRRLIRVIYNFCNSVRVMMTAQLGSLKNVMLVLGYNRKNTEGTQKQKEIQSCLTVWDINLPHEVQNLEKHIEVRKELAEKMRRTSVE

Binder | binding result
GGAAACAGUCAUUUGCGCACAACUUUAAAAGUCUGCAU (ssRNA) [BDNF 3'UTR control segment without neuronal ELAV sites] | no binding
AGAAAAAAUAUUUAUUGUAUUUUAGUAUAUUUAUAUAA (ssRNA) [BDNF 3'UTR neuronal ELAV binding segment (U-rich)] | no binding
